Patent US7935341B2, “Antibodies to complementary peptides of thrombin or portions thereof” (Orthologic Corp., priority 2005, dated 2011)
No end group written: not given here.

Target: T1, biotinylated thrombin ([B]-thrombin) (Homo sapiens, UniProt P00734)
T1 construct: present in blood plasma in the form of a precursor, pro-thrombin
Assay: Binding of biotinylated thrombin to complementary peptides coated on ELISA plates
Settings: for specific binding of [B]-thrombin to the complementary peptide: peptide-coated ELISA plate, total minus nonspecific binding (excess unlabeled thrombin), HRP-avidin readout at 450 nm
Method: Complementary peptides (CPs) (AC-23, 23C53, C1053 and ND1053) were coated onto individual wells of 96 well plates by incubating in a 10 μg/ml solution of peptide in carbonate buffer (pH 9.5) or in Phosphate Buffered Saline (PBS) overnight at room temperature. The amino acid sequences of particular complementary peptides are described below and are depicted in FIG. 4. In particular, the following CPs were generated:
Prior to use, the wells were covered with blocking solution containing 0.1% bovine serum albumin (BSA) to reduce non-specific binding. The plates were rinsed and stored at 4° C. until used. To perform the binding experiments, the peptide-coated ELISA plates were blocked with 200 μl per well of blocking buffer (0.1% BSA (w/v) in PBS) for 90 minutes at room temperature. The plates were subsequently rinsed two times with distilled water. Total and nonspecific (NS) binding was determined, respectively, by adding 100 μl per well of 125 ng/ml of biotinylated thrombin ([B]-thrombin) alone or containing 12.5 μg/ml of unlabeled thrombin for 90 minutes at room temperature. The plates were then rinsed four times with PBSTT (PBS+0.5% v/v Tween 20 (polyoxyethylene sorbitan monolaurate)), and 100 μl of Avidin-HRP antibody (Becton Dickinson) diluted to 1:1000 was added per well for 120 minutes at room temperature. The plates were subsequently rinsed four times with PBSTT, and 100 μl of Turbo TMB substrate (Pierce) was added for 30 minutes at room temperature. The reaction was stopped by adding 100 μl per well of 1 N H2SO4 and the plates were read immediately at 450 nm using a Spectra Max Plus plate reader (Molecular Device). The specific binding of [B]-thrombin to the coated wells was determined by subtracting non-specific binding from total binding.
Specific thrombin binding was determined using indicated concentrations of biotinylated thrombin alone and with a 100-fold excess of unlabeled thrombin (to define nonspecific binding).

Sequence | specific binding of [B]-thrombin to the complementary peptide | EC50 (increasing concentrations of [B]-thrombin on AC-23-coated wells, n=2±SD, read-out: half maximal binding of [B]-thrombin)
TFTGIPSFPF (complementary peptides) [10C53] | not | 
KGSPTVTFTGIPCFPFIRLVTS [AC-23] | specifically bound | 4.8 ± 0.2 nM
KGSPTVTFTGIPSFPFIRLVTS (complementary peptides) [23C53] | specifically bound | 
